{"source": "patent US20260009008A1", "about": "“SYNTHETIC GENOME EDITING SYSTEM” (Pencil Biosciences Limited, priority 2021, published 2026)", "key": {"[1]": {"test": "Thioflavin T assay", "assay_type": "physicochemical", "conditions": "200 μM peptide, 25 μM ThT, 37° C., excitation 450 nm", "source_text": "Appropriate self-assembling peptides (alternatively referred to as folding peptides as in a single folding structure) will form a structure which can be identified by thioflavin T (Tht) binding. Fluorescence emission assay of Thioflavin T binding is commonly employed to detect amyloid fibrils. Upon binding to amyloid fibrils, ThT gives a strong fluorescence signal at approximately 482-485 nm when excited at 450 nm (Xue et al. (2017) Royal. Soc. Open Sci. 4:160696, 'Thioflavin T as an amyloid dye: fibril quantification, optimal concentration and effect on aggregation).\nSuch peptides were tested for ability to self-assemble to provide a β-sheet supramolecular structure and nickase activity. Ability to provide a β-sheet supramolecular structure was determined by thioflavin T fluorescence binding (Xue et al. (2017) Royal Soc. Open Sci. 4:160696). Nickase activity was investigated by means of a molecular beacon assay combined with a gel plasmid cleavage assay.\nThioflavin T (ThT) was mixed with the peptides in reaction buffer solution. Peptides were diluted to 200 μM (from a stock solution of 4.4 mM in DMSO) using a reaction buffer solution (the same buffer as used for the initial molecular beacon assays as set out below). […] The emission signal at 485 nm was measured every 5 minutes using an excitation wavelength of 450 nm. […]"}, "[2]": {"system": "plasmid DNA (pBR322)", "test": "Gel plasmid cleavage assay", "assay_type": "biochemical", "source_text": "For this reason a further gel plasmid cleavage assay was employed to look for cleavage. Such a gel cleavage assay can differentiate between plasmid that is intact (no cleavage), nicked (ssDNA cleavage) and linearised (dsDNA cleavage) as the three plasmid species will migrate differently on an agarose gel. Intact plasmids have a supercoiled structure and therefore can migrate easily through an agarose gel whereas a ssDNA cleavage on the plasmid will relax this supercoiled structure. This produces a relaxed circle/nicked structure that migrates more slowly through the pores. The dsDNA cleavage of a plasmid produces a linearised plasmid. The linear structure migrates faster than a relaxed circular structure although not as fast as the supercoiled structure.\nTo optimize the assay, plasmid DNA (pBR322) was mixed with increasing concentrations of the peptide bL or bN, in the presence of Zn^2 + ions. […] The percentage of nicked species increases with greater peptide concentration for both bL and bN. […] An increasing proportion of the plasmid DNA is also observed in the wells of the gel. This DNA can be binding to the peptide causing a complex that is unable to migrate into the gel."}, "[3]": {"test": "Observation of peptide aggregation / precipitation", "assay_type": "physicochemical"}}, "note": "“Also recorded” adds a separate entry of the source.", "data": [{"substance": "LELDLHL [bD]", "values": [{"measurement": "Thioflavin T emission signal at 485 nm (amyloid-like fibrils)", "setting": "[1]", "value": "high emission signal was measured instantly; also recorded: higher propensity to produce a highly stable amyloid beta sheet structure; also recorded: indicative of production of amyloid β-sheet structure"}, {"measurement": "cleavage of plasmid", "setting": "[2]", "value": "some cleavage"}, {"measurement": "percentage of cleavage versus peptide concentration", "setting": "[2]", "value": "increase with peptide concentration"}, {"measurement": "aggregation / precipitation of peptide", "setting": "[3]", "value": "least propensity to aggregate and to precipitate"}]}]}
